Data on four molecules can be found in patent publication US20260241018A1 (BIOCYTOGEN PHARMACEUTICALS BEIJING, published 2026).

What is called Kd is the constant that tells how readily two partners part at equilibrium. The term koff denotes the first-order rate constant of dissociation. Usually kon stands for a measure of how fast the partners come together.

Assay [1] has as its target T1, dog 5T4 expressed on CHO-S cells (CHO-d5T4 cells) (dog).
T1 chain: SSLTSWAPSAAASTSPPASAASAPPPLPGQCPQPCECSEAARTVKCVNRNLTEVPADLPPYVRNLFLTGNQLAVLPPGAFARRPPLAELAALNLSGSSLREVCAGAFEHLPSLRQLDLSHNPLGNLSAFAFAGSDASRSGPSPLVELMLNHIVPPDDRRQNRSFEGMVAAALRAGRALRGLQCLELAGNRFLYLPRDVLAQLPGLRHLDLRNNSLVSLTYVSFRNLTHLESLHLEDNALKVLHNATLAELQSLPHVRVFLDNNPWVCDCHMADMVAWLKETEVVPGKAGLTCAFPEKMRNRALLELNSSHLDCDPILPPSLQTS
In words: flow cytometry, CHO-d5T4 cells. The method, then:
(§1) CHO-h5T4 cells, CHO-m5T4 cells, CHO-fas5T4 cells or CHO-d5T4 cells were transferred to a 96-well plate at a density of 2×10⁵ cells/well respectively. The anti-5T4 antibodies were added to the 96-well plate, and incubated at 4° C. for 30 min. Then, the cells were incubated with the secondary antibody anti-hlgG-Fc-Alex Flour 647 (RL1-H) (Jackson ImmunoResearch Laboratories, Inc., Cat #: 109-606-170) at 4° C. in the dark for 15 minutes before flow cytometry analysis.
On the technique in general: In flow cytometry, cells or beads pass a laser one at a time.

For assay [2], the target named is T2, human 5T4 expressed on CHO-S cells (CHO-h5T4 cells) (human, UniProt Q13641 32-355).
T2 sequence: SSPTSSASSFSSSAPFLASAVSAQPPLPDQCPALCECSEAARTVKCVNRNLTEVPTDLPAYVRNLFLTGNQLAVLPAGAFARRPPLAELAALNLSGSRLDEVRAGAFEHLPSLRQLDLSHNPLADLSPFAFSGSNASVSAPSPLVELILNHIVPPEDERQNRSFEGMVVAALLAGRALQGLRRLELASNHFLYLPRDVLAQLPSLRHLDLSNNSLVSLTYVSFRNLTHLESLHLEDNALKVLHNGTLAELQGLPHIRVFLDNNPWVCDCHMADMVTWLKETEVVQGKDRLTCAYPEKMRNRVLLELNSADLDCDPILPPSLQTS
Description: flow cytometry, CHO-h5T4 cells. The method, then:
as §1

Assay [3] deals with T3, mouse 5T4 expressed on CHO-S cells (CHO-m5T4 cells) (mouse, UniProt Q9Z0L0 32-361).
T3 sequence: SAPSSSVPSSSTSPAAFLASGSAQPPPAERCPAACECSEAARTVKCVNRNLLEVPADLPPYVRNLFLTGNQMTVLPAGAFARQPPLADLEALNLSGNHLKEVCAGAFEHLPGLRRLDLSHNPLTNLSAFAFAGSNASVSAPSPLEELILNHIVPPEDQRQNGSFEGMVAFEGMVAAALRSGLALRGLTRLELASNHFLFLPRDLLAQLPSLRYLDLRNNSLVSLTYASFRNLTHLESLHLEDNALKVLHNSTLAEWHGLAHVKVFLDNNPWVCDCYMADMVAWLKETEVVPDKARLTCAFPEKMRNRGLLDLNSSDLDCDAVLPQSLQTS
Description: flow cytometry, CHO-m5T4 cells. The method, then:
as §1

For assay [4], the target named is T4, monkey (Macaca fascicularis) 5T4 expressed on CHO-S cells (CHO-fas5T4 cells) (monkey (Macaca fascicularis), UniProt Q4R8Y9 35-355).
T4 construct: also called monkey 5T4
T4 sequence: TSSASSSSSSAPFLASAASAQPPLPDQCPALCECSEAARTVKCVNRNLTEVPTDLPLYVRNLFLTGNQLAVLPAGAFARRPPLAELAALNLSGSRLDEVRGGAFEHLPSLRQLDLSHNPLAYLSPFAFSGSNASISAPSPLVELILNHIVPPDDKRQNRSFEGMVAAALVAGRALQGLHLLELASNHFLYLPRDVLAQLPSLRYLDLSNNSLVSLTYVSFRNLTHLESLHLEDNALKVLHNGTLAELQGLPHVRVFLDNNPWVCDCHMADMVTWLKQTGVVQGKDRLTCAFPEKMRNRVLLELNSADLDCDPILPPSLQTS
Description: flow cytometry, CHO-fas5T4 cells. The method, then:
as §1

The target of assay [5] is T5, His-tagged 5T4 protein of human (h5T4, ACRO Biosystems Inc., Cat #: TPG-H52E5) (human, UniProt Q13641 32-355).
T5 construct: Bought protein; not shown: His tag
T5 sequence (looked up): T2 sequence
In words: SPR (Biacore 8K), antibody captured on Protein A chip, His-tagged 5T4 as analyte. Here is the method:
(§2) Purified anti-5T4 antibodies were diluted to 2 μg/mL and then injected into the Biacore™ 8K biosensor at 10 μL/min for about 50 seconds to achieve a desired protein density (e.g., about 50 response units (RU)). His-tagged 5T4 protein at a concentration of 200 nM was then injected at 30 μL/min for 180 seconds. Dissociation was monitored for 400 seconds. The chip was regenerated after the last injection of each titration with Glycine (pH 2.0), 30 μL/min for 30 seconds. For ISO control, an antibody targeting an irrelevant target protein was used.
(§3) As a person of ordinary skill in the art would understand, the same method with appropriate adjustments for parameters (e.g., antibody concentration) was performed for each tested antibody.

Assay [6] has as its target T6, His-tagged 5T4 protein of mouse (m5T4, ACRO Biosystems Inc., Cat #: TPG-M52H3) (mouse, UniProt Q9Z0L0 32-361, limits assumed).
T6 construct: Bought protein; not shown: His tag
T6 sequence (looked up): T3 sequence
The description is as above. The method, then:
as §2, §3

Assay [7] has as its target T7, h5T4-His protein (human, UniProt Q13641 32-355, limits assumed).
T7 construct: also called His-tagged human 5T4 protein; not shown: His tag
T7 sequence (looked up): T2 sequence
Description: epitope binding assay, h5T4-His captured; binder = analyte 2; competitor (analyte 1): 31G4. Here is the method:
(§4) Epitope binding assays were performed using ForteBio Octet system to determine whether two anti-5T4 antibodies target the same or overlapping epitopes. 1×HBS-EP+buffer (10 mM 4-(2-hydroxyethyl)-1-piperazineethanesulfonic acid (HEPES), 150 mM NaCl, 3 mM ethylenediaminetetraacetic acid (EDTA) and 0.05% P20, pH7.4) diluted from HBS-EP+buffer (10×) was used as the running buffer throughout the experiment. About 50 RU of h5T4-His protein was captured at a flow rate of 10 μL/min, and 200 nM of the tested antibody was injected at a flow rate of 30 μL/min to bind the ligand. Another comparison antibody was injected under the same conditions to determine whether the binding of different antibodies interfered with each other. The binding time was 180 s for each antibody.
(§5) The binding value of each antibody was obtained using Data Analysis HT 12.0. To quantify the interference of one antibody binding to another, a binding ratio was calculated to compare each pair of antibodies. The binding ratio is defined as the binding value of the second antibody (analyte 2), divided by the binding value of the first antibody (analyte 1). […] In general, antibody pairs that interfere with each other have the same or overlapping epitopes.

The target of assay [8] is T7, h5T4-His protein. Description: epitope binding assay, h5T4-His captured; binder = analyte 2; competitor (analyte 1): 32E3. Here is the method:
as §4, §5

Assay [9] has as its target T7, h5T4-His protein. In words: epitope binding assay, h5T4-His captured; binder = analyte 2; competitor (analyte 1): 32G1. The method, then:
as §4, §5

The target in assay [10] is T7, h5T4-His protein. Description: epitope binding assay, h5T4-His captured; binder = analyte 2; competitor (analyte 1): 32G8. The method, then: as §4, §5
Assay [11] has as its target T7, h5T4-His protein. Description: epitope binding assay, h5T4-His captured; binder = analyte 2; competitor (analyte 1): 35C6. The method, then:
as §4, §5

Assay [12] addresses T7, h5T4-His protein. In words: epitope binding assay, h5T4-His captured; binder = analyte 2; competitor (analyte 1): 35B12. Here is the method:
as §4, §5

Assay [13] addresses T8, His-tagged 5T4 protein of monkey (fas5T4, ACRO Biosystems Inc., Cat #: TPG-C52H3) (monkey, UniProt Q4R8Y9 35-355).
T8 construct: Bought protein
T8 sequence: T4 sequence
Description: SPR (Biacore 8K), antibody captured on Protein A chip, His-tagged 5T4 as analyte. Here is the method: as §2, §3
On the technique in general: SPR reads the build-up and loss of mass on a sensor chip optically.

B1: 35C6 (antibody, V domains shown)
VH: QVQLVQSGGGLVQPGGSLRLSCAASGFTFSRNAMSWVRQAPGKGLEWVSAISGSGGSTHDADSVKGRFTISRDNSKNTLYLEMNSLRAEDTAVYYCAKDGYSSLWDYHYYGMDVWGQGTTVTVSS
VL: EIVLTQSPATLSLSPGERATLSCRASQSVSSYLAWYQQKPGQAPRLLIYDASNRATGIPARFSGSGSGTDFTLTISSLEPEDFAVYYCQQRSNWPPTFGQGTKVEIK
notes: also called anti-5T4 antibody 35C6
B1: the “Percentage of Positive Cells” value in assay [1] came to 71.1%; in [2], 67.3%; in assay [3], 63.3%; in assay [4] it was 55.7%. Besides, the dissociation constant Kd in [5] worked out at 19.2 nM; in [6], 1.31 nM. Further, the off-rate constant (koff) in [5] was 0.00315 s⁻¹; in [6], 0.000407 s⁻¹. Moreover, the results for the kon in assay [5] and in assay [6] were 164000 M⁻¹ s⁻¹ and 310000 M⁻¹ s⁻¹, respectively. Further, the binding ratio in [7] is 0.81; in assay [8], 0.93; in [9], 0.96; in [10], 0.98; in [11], 0.02; in [12], 0.03.

B2: 31G4 (antibody, V domains shown)
VH: QVQLVQSGGGLVQPGGSLRLSCAASGFTFKSYWMHWVRQAPGKGLEWVSRINFDGSSITYADSVKGRFTISRDNAKNTLYLQMNSLSAEDTAVYYCARPLTYYEILTGFSQYFDFWGQGTLVTVSS
VL: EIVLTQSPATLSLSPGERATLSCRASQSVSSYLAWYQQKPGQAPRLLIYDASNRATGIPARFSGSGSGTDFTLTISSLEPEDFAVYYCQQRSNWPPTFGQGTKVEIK
notes: also called anti-5T4 antibody 31G4
As for B2, the “Percentage of Positive Cells” value in assay [1] turned out to be 1.1%; in assay [2], 79.3%; in assay [3], 1.4%; in assay [4], 58.8%. Further, the figures for the binding result in assay [1], in assay [3] and in [6] were “no binding”, “no binding” and “no binding (tested: 200 nM)”, respectively. In addition, the figures for the Kd in assay [5] and in assay [13] were 2.68 nM and 10.1 nM, respectively. Further, the off-rate constant (koff) in assay [5] was determined as 0.000397 s⁻¹; in [13], 0.00101 s⁻¹. For the same molecule, the kon is 148000 M⁻¹ s⁻¹ in [5] and 100000 M⁻¹ s⁻¹ in [13]. In addition, the binding ratio was 0.04 in assay [7]; 1.01 in assay [8]; 1.04 in assay [9]; 1.01 in assay [10]; 1.05 in assay [11]; 1.01 in assay [12].

B3: MAB2 analog-SI (antibody, V domains shown)
VH: QVQLQQPGAELVKPGASVKMSCKASGYTFTSYWITWVKQRPGQGLEWIGDIYPGSGRANYNEKFKSKATLTVDTSSSTAYMQLSSLTSEDSAVYNCARYGPLFTTVVDPNSYAMDYWGQGTSVTVSS
VL: DVLMTQTPLSLPVSLGDQASISCRSSQSIVYSNGNTYLEWYLQKPGQSPKLLIYKVSNRFSGVPDRFSGSGSGTDFTLKISRVEAEDLGVYYCFQGSHVPFTFGSGTKLEIK
notes: MAB2 is a humanized IgG1 monoclonal antibody targeting 5T4
As for B3, in assay [5], binding was characterised by a dissociation constant (Kd) of 22.5 nM, the dissociation rate constant (koff) stood at 0.00292 s⁻¹ and the kon came out at 130000 M⁻¹ s⁻¹. In assay [13], this molecule yielded a Kd of 55.1 nM, a koff of 0.00545 s⁻¹ and an on-rate constant (kon) of 99000 M⁻¹ s⁻¹. In addition, the binding result in [6] is listed as “no binding (tested: 200 nM)”.

B4: 32E3 (antibody, V domains shown)
VH: QVQLVQSGGGLVQPGGSLRLSCVVSGFTVSSDYMSWVRQAPGKGLEWVSIIYSGGSTFYADSVKGRFTISRDNSKNTLFLQMNSLRAEDTAVYYCARDRDCHGWGSYYNRWFDPWGQGTLVTVSS
VL: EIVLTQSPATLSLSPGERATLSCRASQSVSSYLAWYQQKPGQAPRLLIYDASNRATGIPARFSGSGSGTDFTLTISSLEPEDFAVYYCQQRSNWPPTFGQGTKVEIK
notes: also called anti-5T4 antibody 32E3
B4: the “Percentage of Positive Cells” value in [1] came to 53.7%; in [2], 65.8%; in [3] it was 52.2%; in [4] it was 51.5%. Besides, the Kd in [5] is 147 nM; in assay [13], 116 nM. The koff is 0.00661 s⁻¹ in [5] and 0.00297 s⁻¹ in assay [13]. Also, the on-rate constant (kon) in assay [5] turned out to be 44900 M⁻¹ s⁻¹; in [13], 25600 M⁻¹ s⁻¹. Also, the binding ratio in assay [7] was 0.8; in [8] it was -0.01; in [9] it was 0.83; in [10], -0.06; in [11], 0.96; in [12] it was 0.97.
